Test results as given in patent publication US5102995A, “DNA encoding modified heparin cofactor II” (Washington University, priority 1989, dated 1992).

Columns and labels:
thrombin [1] = assay: Inhibition of thrombin by rHCII (chromogenic substrate Chromozym TH); type: biochemical, human; conditions: for Second-order rate constant (k2) for inhibition of thrombin: No GAG, thrombin 15 nM, room temperature; for Increase in the rate constant for thrombin inhibition produced by dermatan sulfate: dermatan sulfate vs no GAG; for Increase in the rate constant for thrombin inhibition produced by heparin: heparin vs no GAG; for Maximum rate constant of thrombin inhibition relative to native HCII: in the presence of dermatan sulfate
Method: (§1) Materials--Chromogenic substrates were purchased from the following sources: tosyl-Gly-Pro-Arg-p-nitroanilide (Chromozym TH), Boehringer Mannheim; N-succinyl-Ala-Ala-Pro-Phe-p-nitroanilde, Sigma; methoxycarbonyl cyclohexylglycyl-Gly-Arg-p-nitroanilde (Spectrozyme FXa), American Diagnostica; and Pro-Phe-Arg-p-nitroanilide (S-2302), KabiVitrum. Thrombin and HCII derived from human plasma were prepared and assayed by conventional procedures as previously described by Blinder et al., J. Biol. Chem. 264, 5128-5133 (1989). Human coagulation factor Xa was provided by Dr. George Broze, Jr., Washington University, St. Louis, Mo. Human chymotrypsin and plasma kallikrein were purchased from Sigma. Affinity purified rabbit anti-HCII antibodies were prepared and labeled with Na[^125 I] by conventional procedure as described previously by Blinder et al., Biochemistry 27, 752-759 (1988). Bovine lung heparin and porcine skin dermatan sulfate were purchased from Sigma; the dermatan sulfate was treated with nitrous acid to remove contaminating heparin prior to use [Teien et al., Thromb. Res. 8, 859-867 (1976)]. Heparin-Sepharose was prepared by commonly known procedure as described previously by Tollefsen et al., J. Biol. Chem. 257, 2162-2169 (1982).
(§2) Inhibition of proteases by rHCII--Protease inhibition by rHCII was determined by incubating 90 μl of the partially purified rHCII (or the corresponding heparin-Sepharose fractions of a control lysate from cells transformed with pMON-5840) with 5 μl of the protease and 5 μl of either glycosaminoglycan or water in a disposable polystyrene cuvette at room temperature. Final concentrations of the proteases were as follows: thrombin, 15 nM; chymotrypsin, 21 nM; factor Xa, 16 nM; and kallikrein, 10 nM. After a specified period of time from 5 seconds (s) to 150 min, 300-500 μl of the appropriate chromogenic substrate was added, and the absorbance at 405 nm was recorded continuously for 100 s. The rate of change of absorbance was proportional to the concentration of active protease remaining in the incubation. The amounts added and concentrations of each substrate were as follows: Chromozym TH (thrombin), 500 μl, 0.1 mM; N-succinyl-Ala-Ala-Pro-Phe-p-nitroanilde (chymovtrypsin), 300 μl, 0.5 mM; Spectrozyme FXa (factor Xa), 400 μl, 0.125 mM; and S-2302 (kallikrein), 300 μl, 0.4 mM.
(§3) Protease inhibition by rHCII in the absence of a glycosaminoglycan--The time courses of inhibition of thrombin, factor Xa, kallikrein, and chymotrypsin by […] rHCII(Leu444 →Arg) in the absence of a glycosaminoglycan are indicated in FIG. 3. The incubations were performed under pseudo-first-order conditions, such that the initial concentration of rHCII was greater than the concentration of protease. The pseudo-first-order rate constants (k1) for protease inhibition were determined by fitting the data to the following equation: k1 t=ln([P]0 /[P]t), in which [P]0 =initial protease activity and [P]t =protease activity at time=t. The second-order rate constants (k2) were then calculated by dividing k1 by the initial rHCII concentration. It was observed that rHCII(Leu444 →Arg) inhibits thrombin almost 100 times more rapidly than native rHCII in the absence of a glycosaminoglycan. Furthermore, rHCII(Leu444 →Arg) inhibits factor Xa and kallikrein, while inhibition of these proteases by native rHCII is undetectable.
Inhibition of thrombin by rHCII in the presence of dermatan sulfate or heparin--The time course of inhibition of thrombin was determined in the presence of various concentrations of dermatan sulfate or heparin.

chymotrypsin = assay: Inhibition of chymotrypsin by rHCII (chromogenic substrate); type: biochemical, human; conditions: for Second-order rate constant (k2) for inhibition of chymotrypsin: No GAG, chymotrypsin 21 nM; for Inhibition of chymotrypsin (in words): absence of a glycosaminoglycan
Method: as §1, §2, §3

factor Xa = assay: Inhibition of factor Xa by rHCII (Spectrozyme FXa); type: biochemical, human; conditions: for Second-order rate constant (k2) for inhibition of factor Xa: No GAG, factor Xa 16 nM; for Inhibition of factor Xa (in words): absence of a glycosaminoglycan
Method: as §1, §2, §3

plasma kallikrein = assay: Inhibition of kallikrein by rHCII (S-2302); type: biochemical, human; conditions: for Second-order rate constant (k2) for inhibition of kallikrein: No GAG, kallikrein 10 nM; for Inhibition of kallikrein (in words): absence of a glycosaminoglycan
Method: as §1, §2, §3

thrombin [2] = conditions: literature; cited from earlier work

B1: rHCII(Leu444 →Arg): modified heparin cofactor II: leucine at position 444 replaced by arginine in the 480 amino acid sequence; expressed in E. coli (protein, UniProt P05546 20-499, looked up, variant L444R)
Heparin cofactor 2: GSKGPLDQLEKGGETAQSADPQWEQLNNKNLSMPLLPADFHKENTVTNDWIPEGEEDDDYLDLEKIFSEDDDYIDIVDSLSVSPTDSDVSAGNILQLFHGKSRIQRLNILNAKFAFNLYRVLKDQVNTFDNIFIAPVGISTAMGMISLGLKGETHEQVHSILHFKDFVNASSKYEITTIHNLFRKLTHRLFRRNFGYTLRSVNDLYIQKQFPILLDFKTKVREYYFAEAQIADFSDPAFISKTNNHIMKLTKGLIKDALENIDPATQMMILNCIYFKGSWVNKFPVEMTHNHNFRLNEREVVKVSMMQTKGNFLAANDQELDCDILQLEYVGGISMLIVVPHKMSGMKTLEAQLTPRVVERWQKSMTNRTREVLLPKFKLEKNYNLVESLKLMGIRMLFDKNGNMAGISDQRIAIDLFKHQGTITVNEEGTQATTVTTVGFMPRSTQVRFTVDRPFLFLIYEHRTSCLLFMGRVANPSRS
modifications: expressed in E. coli
- Second-order rate constant (k2) for inhibition of thrombin (thrombin [1]): 103000 M⁻¹ s⁻¹
- Second-order rate constant (k2) for inhibition of thrombin (thrombin [1]; listed as HCII(Leu444 →Arg)): 103000 M⁻¹ s⁻¹
- Rate of thrombin inhibition relative to native HCII (thrombin [1]; absence of a glycosaminoglycan): ~100 fold
- Increase in the rate constant for thrombin inhibition produced by dermatan sulfate (thrombin [1]): much smaller effect
- Increase in the rate constant for thrombin inhibition produced by heparin (thrombin [1]): minimal effect
- Maximum rate constant of thrombin inhibition relative to native HCII (thrombin [1]): about twice as fast
- Maximum rate constant of thrombin inhibition relative to native HCII (thrombin [1]; listed as HCII(Leu444 →Arg)): 2 fold
- Second-order rate constant (k2) for inhibition of chymotrypsin (chymotrypsin): < 170 M⁻¹ s⁻¹
- Inhibition of chymotrypsin (in words) (chymotrypsin): does not inhibit chymotrypsin at a detectable rate
- Inhibition of chymotrypsin (in words) (chymotrypsin; listed as HCII(Leu444 →Arg)): more slowly
- Second-order rate constant (k2) for inhibition of factor Xa (factor Xa): 733 M⁻¹ s⁻¹
- Inhibition of factor Xa (in words) (factor Xa): inhibits
- Inhibition of factor Xa (in words) (factor Xa; listed as HCII(Leu444 →Arg)): inhibited more rapidly
- Effect of dermatan sulfate on rate of inhibition of factor Xa (factor Xa; dermatan sulfate): nor does it increase
- Effect of heparin on inhibition of factor Xa (factor Xa; heparin 100 μg/ml): appears to protect
- Second-order rate constant (k2) for inhibition of kallikrein (plasma kallikrein): 2170 M⁻¹ s⁻¹
- Inhibition of kallikrein (in words) (plasma kallikrein): inhibits
- Inhibition of kallikrein (in words) (plasma kallikrein; listed as HCII(Leu444 →Arg)): inhibited more rapidly
- Effect of heparin on inhibition of kallikrein (plasma kallikrein; heparin 100 μg/ml): appears to protect

B2: native rHCII: recombinant native heparin cofactor II expressed in E. coli; amino acid sequence identical to HCII purified from human plasma (protein, UniProt P05546 20-499, looked up)
Heparin cofactor 2: GSKGPLDQLEKGGETAQSADPQWEQLNNKNLSMPLLPADFHKENTVTNDWIPEGEEDDDYLDLEKIFSEDDDYIDIVDSLSVSPTDSDVSAGNILQLFHGKSRIQRLNILNAKFAFNLYRVLKDQVNTFDNIFIAPVGISTAMGMISLGLKGETHEQVHSILHFKDFVNASSKYEITTIHNLFRKLTHRLFRRNFGYTLRSVNDLYIQKQFPILLDFKTKVREYYFAEAQIADFSDPAFISKTNNHIMKLTKGLIKDALENIDPATQMMILNCIYFKGSWVNKFPVEMTHNHNFRLNEREVVKVSMMQTKGNFLAANDQELDCDILQLEYVGGISMLIVVPHKMSGMKTLEAQLTPRVVERWQKSMTNRTREVLLPKFKLEKNYNLVESLKLMGIRMLFDKNGNMAGISDQRIAIDLFKHQGTITVNEEGTQATTVTTVGFMPLSTQVRFTVDRPFLFLIYEHRTSCLLFMGRVANPSRS
- Second-order rate constant (k2) for inhibition of thrombin (thrombin [1]): 1050 M⁻¹ s⁻¹
- Second-order rate constant (k2) for inhibition of thrombin (thrombin [1]; listed as native HCII): 1050 M⁻¹ s⁻¹
- Increase in the rate constant for thrombin inhibition produced by dermatan sulfate (thrombin [1]): ~3500 fold
- Increase in the rate constant for thrombin inhibition produced by heparin (thrombin [1]): about 40 fold
- Second-order rate constant (k2) for inhibition of chymotrypsin (chymotrypsin): 3670 M⁻¹ s⁻¹
- Effect of dermatan sulfate on rate of inhibition of chymotrypsin (chymotrypsin; dermatan sulfate): does not significantly increase
- Second-order rate constant (k2) for inhibition of factor Xa (factor Xa): < 17 M⁻¹ s⁻¹
- Inhibition of factor Xa (in words) (factor Xa): undetectable
- Second-order rate constant (k2) for inhibition of kallikrein (plasma kallikrein): < 50 M⁻¹ s⁻¹
- Inhibition of kallikrein (in words) (plasma kallikrein): undetectable

B3: HCII: heparin cofactor II, a 65,600 dalton plasma glycoprotein, serpin that inhibits thrombin (protein, UniProt P05546 20-499, looked up)
Heparin cofactor 2: GSKGPLDQLEKGGETAQSADPQWEQLNNKNLSMPLLPADFHKENTVTNDWIPEGEEDDDYLDLEKIFSEDDDYIDIVDSLSVSPTDSDVSAGNILQLFHGKSRIQRLNILNAKFAFNLYRVLKDQVNTFDNIFIAPVGISTAMGMISLGLKGETHEQVHSILHFKDFVNASSKYEITTIHNLFRKLTHRLFRRNFGYTLRSVNDLYIQKQFPILLDFKTKVREYYFAEAQIADFSDPAFISKTNNHIMKLTKGLIKDALENIDPATQMMILNCIYFKGSWVNKFPVEMTHNHNFRLNEREVVKVSMMQTKGNFLAANDQELDCDILQLEYVGGISMLIVVPHKMSGMKTLEAQLTPRVVERWQKSMTNRTREVLLPKFKLEKNYNLVESLKLMGIRMLFDKNGNMAGISDQRIAIDLFKHQGTITVNEEGTQATTVTTVGFMPLSTQVRFTVDRPFLFLIYEHRTSCLLFMGRVANPSRS
- Increase of the rate of thrombin inhibition by heparin and dermatan sulfate (thrombin [2]): ~ 1000 fold
